Results on one molecule are retold here after article PMC3563353 (2012).

Square brackets hold non-standard residues; d marks the D form. Primed or numbered codes have the meaning given here. Side chains are listed from the residue outwards. * marks the point of attachment. IRDye800CW′ = near-infrared fluorescent dye (LiCor), attached as the maleimide; Cy5 = Cy5 near-infrared fluorescent dye; Butanoyl(4-Ph) = O=C(CCCc1ccccc1)*; Mpa = O=C(O)CCS

In one experiment the target is T1, MC1RL-800.
T1 chain: {Butanoyl(4-Ph)}-H[dF]RWGK([Mpa-IRDye800CW′])-NH2
The experiment in a line: competition binding with Eu-NDP-α-MSH on A375/hMC1R cells.

Another experiment deals with T2, MC1RL-Cy5.
T2 chain: {Butanoyl(4-Ph)}-H[dF]RWGK([Mpa-Cy5])-NH2
The experiment is described as above.

B1: MC1R (protein)
chain: MAVQGSQRRLLGSLNSTPTAIPQLGLAANQTGARCLEVSISDGLFLSLGLVSLVENALVVATIAKNRNLHSPMYCFICCLALSDLLVSGSNVLETAVILLLEAGALVARAAVLQQLDNVIDVITCSSMLSSLCFLGAIAVDRYISIFYALRYHSIVTLPRARRAVAAIWVASVVFSTLFIAYYDHVAVLLCLVVFFLAMLVLMAVLYVHMLARACQHAQGIARLHKRQRPVHQGFGLKGAVTLTILLGIFFLCWGPFFLHLTLIVLCPEHPTCGCIFKNFNLFLALIICNAIIDPLIYAFHSQELRRTLKEVLTCSW
For orientation: Ki means a dissociation constant, usually derived from enzyme kinetics or from competition with a known ligand. A higher Ki goes with lower affinity. As to B1, the Ki with MC1RL-800 worked out at 0.4 nM; with MC1RL-Cy5, 0.3 nM.
